This is an account of results in publication PMC6297230, “Structural basis of meiotic telomere attachment to the nuclear envelope by MAJIN-TERB2-TERB1” (Nature Communications, 2018).

First the molecules themselves.
T1: His6–TRF1_(TRFH) (human, UniProt P54274 62-268)
T1 construct: source: E. coli BL21 (DE3), co-purified with MBP–TERB1 fusions
T1 sequence (looked up): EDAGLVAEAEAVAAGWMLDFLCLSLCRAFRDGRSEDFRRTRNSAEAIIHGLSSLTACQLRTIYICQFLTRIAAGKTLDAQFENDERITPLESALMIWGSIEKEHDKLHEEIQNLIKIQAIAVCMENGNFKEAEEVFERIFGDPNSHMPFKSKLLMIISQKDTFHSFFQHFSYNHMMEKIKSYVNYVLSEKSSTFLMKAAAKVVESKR

T2: full length TERB2 (1–220) (human, UniProt Q8NHR7 1-220)
T2 construct: human TERB2, canonical isoform Q8NHR7, full length, amino acids 1-220; source: E. coli BL21 (DE3), co-expressed with MAJIN and TERB1, purified (Ni-NTA, amylose, ion exchange, SEC)
T2 sequence (looked up): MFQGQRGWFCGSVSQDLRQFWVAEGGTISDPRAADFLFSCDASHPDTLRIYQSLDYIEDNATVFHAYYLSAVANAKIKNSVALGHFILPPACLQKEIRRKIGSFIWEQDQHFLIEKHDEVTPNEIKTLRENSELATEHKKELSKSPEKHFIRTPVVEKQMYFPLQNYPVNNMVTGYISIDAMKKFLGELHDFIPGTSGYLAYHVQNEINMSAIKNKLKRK

B1: FAM random dsDNA (145 bp) (dsDNA)
DNA 1: TTCCAGGGTTCCATGGAGATAAAGGTCAATAAATTAGAGTTAGAACTAGAAAGTGCCAAACAGAAATTTGGAGAAATCACAGACACCTATCAGAAAGAAATTGAGGACAAAAAGATATCAGAATAATAACCATGGATATCGAATT
DNA 2: AATTCGATATCCATGGTTATTATTCTGATATCTTTTTGTCCTCAATTTCTTTCTGATAGGTGTCTGTGATTTCTCCAAATTTCTGTTTGGCACTTTCTAGTTCTAACTCTAATTTATTGACCTTTATCTCCATGGAACCCTGGAA
B2: full length TERB2 (1–220) (natural protein)
chain: T2 sequence (looked up)
B3: TERB2 N-terminal end (amino acids 1–107) (domain or fragment, human, UniProt Q8NHR7 1-107, looked up)
chain: MFQGQRGWFCGSVSQDLRQFWVAEGGTISDPRAADFLFSCDASHPDTLRIYQSLDYIEDNATVFHAYYLSAVANAKIKNSVALGHFILPPACLQKEIRRKIGSFIWE
notes: Forms large aggregates in isolation; source: E. coli BL21 (DE3), co-expressed with TERB1, purified (Ni-NTA, amylose, ion exchange, SEC)
B4: TERB1 TRF1-binding domain (amino acids 561–658) (domain or fragment, human, UniProt Q8NA31 561-658, looked up)
chain: TDPFTLCSDIINKEVVSFLATPSCSEMLTYRCSGCIAVEKSLNSRNFSKLLHSCPYQCDRHKVIVEAEDRYKSELRKSLICNKKILLTPRRRQRLSNE
notes: human TERB1, canonical isoform Q8NA31, amino acids 561-658; The discussion prints 568–658 once for TRFB; also called TERB1_(TRFB); TRFB; source: E. coli BL21 (DE3), co-expressed with TRF1 TRFH and/or TERB2, purified (Ni-NTA, amylose, ion exchange, SEC)
B5: MBP–TERB1_(TRFB) partially phosphorylated by CDK1-CyclinB (domain or fragment, human, UniProt Q8NA31 561-658, looked up)
chain: B4 chain
modifications: only partially phosphorylated by CDK1-CyclinB (residue not named for this experiment)
notes: human TERB1, canonical isoform Q8NA31, amino acids 561-658; source: E. coli BL21 (DE3), co-purified with His6–TRF1 TRFH, then incubated with phosphorylated CDK1-CyclinB and ATP
B6: TERB1 TRF1-binding domain (amino acids 561–658) T648E (domain or fragment, human, UniProt Q8NA31 561-658, looked up)
chain: B4 chain with T88E
notes: human TERB1, canonical isoform Q8NA31, amino acids 561-658, phosphomimetic T648E; it may be an MBP fusion as in the phosphorylation assays; also called TERB1_(TRFB) T648E; source: E. coli BL21 (DE3), purified
B7: TRF homology domain of TRF1 (amino acids 62–268) (domain or fragment, human, UniProt P54274 62-268, looked up)
chain: T1 sequence (looked up)
notes: Dimer by SEC-MALS; also called TRF1_(TRFH); source: E. coli BL21 (DE3), purified (Ni-NTA, amylose, ion exchange, SEC; 10% glycerol, room temperature)
B8: TERB2 C-terminus (amino acids 168–220) (domain or fragment)
chain: PVNNMVTGYISIDAMKKFLGELHDFIPGTSGYLAYHVQNEINMSAIKNKLKRK
B9: TERB1 TERB2-binding site (amino acids 585–642) (domain or fragment, human, UniProt Q8NA31 585-642, looked up)
chain: SEMLTYRCSGCIAVEKSLNSRNFSKLLHSCPYQCDRHKVIVEAEDRYKSELRKSLICN
notes: human TERB1, canonical isoform Q8NA31, amino acids 585-642; Forms large aggregates in isolation; also called TERB1T2B; T2B; source: E. coli BL21 (DE3), co-expressed with TERB2, purified (Ni-NTA, amylose, ion exchange, SEC)

Changes are numbered by the printed parent chain. In names and notes the source's numbering stands. Several values for one entry are separate records, joined by “and”; a condition that tells them apart may be missing. Identical values can stand only once.

The target in series [1] is TRF homology domain of TRF1 (amino acids 62–268) (human) (UniProt P54274). Briefly: SEC-MALS; relative binding affinities estimated from dissociation of TRF1 TRFH–TERB1 complexes upon serial dilution (Supplementary Fig. 13a–d).
The target in series [2] is MAJIN core, truncated (amino acids 1–106) (human). Briefly: SEC-MALS; purified (co-expressed) samples at > 1 mg/ml on Superdex 200 Increase 10/300 GL in 20 mM Tris pH 8.0, 250 mM KCl, 2 mM DTT. (In general: Size exclusion chromatography separates by hydrodynamic size, large species first.)
In the next series the target is TERB1 TBM (Homo sapiens) (UniProt Q8NA31). The settings on record: cited from earlier work.
Series [3] addresses GST-TERB1 TBM (Homo sapiens) (UniProt Q8NA31). To be noted: cited from earlier work.
The target of series [4] is MAJIN N-terminal structural core (amino acids 1–112) (human). The series is described as follows: SEC-MALS; purified (co-expressed) samples at > 1 mg/ml on Superdex 200 Increase 10/300 GL in 20 mM Tris pH 8.0, 250 mM KCl, 2 mM DTT.
For another series, the target named is TRF1 full length (human, UniProt P54274 1-439). Briefly: EMSA; apparent, Hill fit; EMSA: 20 mM Tris pH 8.0, 250 mM KCl, 1 h at 4 °C, 3% glycerol, 0.5% agarose in 0.5x TBE; 25 nM FAM-DNA for Kd (protein as oligomer), 0.3 uM DNA for display. The settings on record: protein: recombinant; tags: tag removed (TEV); chain copies: 2; label: 5' 6-FAM; blunt. On the technique in general: Mobility shift assays separate free from complexed probe on a gel.

Series [5] addresses MAJIN N-terminal structural core (amino acids 1–112) (human). Briefly: SEC-MALS; purified (co-expressed) samples at > 1 mg/ml on Superdex 200 Increase 10/300 GL in 20 mM Tris pH 8.0, 250 mM KCl, 2 mM DTT. The source holds these as a separate data set.
Target sequence in this assay (Q3KP22 1-112): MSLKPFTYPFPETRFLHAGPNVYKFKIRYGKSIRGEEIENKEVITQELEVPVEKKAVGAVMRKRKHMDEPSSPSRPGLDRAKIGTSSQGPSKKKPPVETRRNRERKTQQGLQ
Series [6] addresses B4. The description is as above. To be noted: both partners purified.
The target of series [7] is B7. The description is as above. The settings on record: both partners purified.
Another series concerns the target T1, His6–TRF1_(TRFH). Briefly: SEC-MALS; co-purified His6–TRF1 TRFH complexes with MBP–TERB1 TRFB (9 µM) or MBP–TERB1 TBM (130 µM) incubated with 9 µM phosphorylated CDK1-CyclinB in 40 mM Tris pH 7.5, 250 mM KCl, 20 mM MgCl2, 2 mM ATP, 10 mM DTT, 10 min at 30 °C and 50 min at 22 °C; also SDS–PAGE with ProQ-Diamond. To be noted: both partners purified.
In series [8] the target is B7. The series is described as follows: SEC-MALS; relative binding affinities estimated from dissociation of TRF1 TRFH–TERB1 complexes upon serial dilution (Supplementary Fig. 13a–d). To be noted: both partners purified.
Series [9] has as its target MAJIN core, truncated (amino acids 1–106) (human). Briefly: SEC-MALS; purified (co-expressed) samples at > 1 mg/ml on Superdex 200 Increase 10/300 GL in 20 mM Tris pH 8.0, 250 mM KCl, 2 mM DTT. This is another data set of the same source.
Series [10] deals with MAJIN_(Core+BP1)-TERB2–TERB1_(TRFB) complex (1–147, 1–220, 561–658) (human) (UniProt Q8NHR7). Briefly: SEC-MALS; complex reconstituted by adding TRF1 TRFH to purified MAJIN–TERB2–TERB1(TRFB) (Supplementary Fig. 12c). The settings on record: scale: TRF1 TRFH chains per 2:2:2 MAJIN–TERB2–TERB1 complex.
Series [11] concerns the molecule itself. Briefly: SEC-MALS; purified (co-expressed) samples at > 1 mg/ml on Superdex 200 Increase 10/300 GL in 20 mM Tris pH 8.0, 250 mM KCl, 2 mM DTT.
Series [12] addresses MAJIN core (amino acids 1–112) F73E Y75E (human). The series is described as above.
For series [13], the target named is MAJIN core (amino acids 1–112) K24M K26E R28E K31D R34E R81D (human). Described as above.
For series [14], the target named is T2, full length TERB2 (1–220). The description is as above. The settings on record: both partners purified.
Series [15] deals with B3. Described as above. To be noted: both partners purified.

Chain of TRF1 full length (P54274 whole entry): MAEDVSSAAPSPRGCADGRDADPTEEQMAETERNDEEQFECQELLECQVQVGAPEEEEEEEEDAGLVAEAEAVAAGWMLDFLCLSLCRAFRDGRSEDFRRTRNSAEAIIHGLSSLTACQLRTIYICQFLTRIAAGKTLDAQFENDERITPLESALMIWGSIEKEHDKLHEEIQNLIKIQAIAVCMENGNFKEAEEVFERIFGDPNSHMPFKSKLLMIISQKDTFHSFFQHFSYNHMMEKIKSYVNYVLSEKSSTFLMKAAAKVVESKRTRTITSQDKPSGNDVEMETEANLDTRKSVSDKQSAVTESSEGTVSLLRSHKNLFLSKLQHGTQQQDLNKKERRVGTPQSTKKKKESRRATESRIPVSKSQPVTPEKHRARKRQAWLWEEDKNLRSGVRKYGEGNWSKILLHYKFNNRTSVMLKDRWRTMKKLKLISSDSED

“TERB1TBM (amino acids 642–658) (from UniProt Q8NA31 642-658) (peptide)”: in series [1], the fold weaker binding than TERB1 TRFB was greater than 100 fold.
As to “MAJIN core, truncated (amino acids 1–106) (domain or fragment)”, in series [2], the stoichiometry N (MAJIN chains in the 2:2 complex) is 2.
TRF1 TRFH (from UniProt P54274): the Kd in the series with TERB1 TBM (Homo sapiens) was 5.6 µM; in [3], 75 nM.
In [4], “MAJIN N-terminal structural core (amino acids 1–112) (domain or fragment)” came in with a stoichiometry N (MAJIN chains in the 2:2:2 complex) of 2 and a stoichiometry N (MAJIN chains in the 2:2 complex) of 2.
Regarding B1, the Kd in the series with TRF1 full length turned out to be 100 nM.
With B2, the stoichiometry N (binder chains per target chain (2:2:2)) in series [5] stood at 1.
Take B3: in [6], the stoichiometry N (usually the number of molecules, sites or subunits per partner or assembly) was 1 binder chains per target chain (2:1:1 TRF1:TERB1:TERB2).
Regarding B4, the “stoichiometry N” value in [7] was 0.5 binder chains per target chain (2:1 TRF1:TERB1) and 0.5 binder chains per target chain (2:1:1 TRF1:TERB1:TERB2).
Take B5: in the series with His6–TRF1_(TRFH), the “stoichiometry N” value was 0.5 binder chains per target chain (2:1 TRF1:TERB1).
Turning to B6, in series [8], the “fold higher affinity than wild-type TERB1 TBM” value was no less than 10 fold.
Molecule PVNNMVTGYISIDAMKKFLGELHDFIPGTSGYLAYHVQNE (domain or fragment) [TERB2 C-terminus, truncated (amino acids 168–207)] came in with a stoichiometry N (binder chains per target chain (2:2)) in series [9] of 1.
As to B7, the stoichiometry N in series [10] is 4; in series [11] it was 2 chains in the oligomer.
Consider B8, for which, in [5], the stoichiometry N (binder chains per target chain (2:2)) came to 1. Moreover, the stoichiometry N (binder chains per target chain (1:1)) in series [12] and in series [13] was 1 in each case.
For B9, the entries for the “stoichiometry N” value in [14] and in series [15] were 1 binder chains per target chain (2:2:2) and 1 binder chains per target chain (1:1), respectively.
